Results on five substances are retold here after US20190169246A1.

The experiment concerns the target ApoER2 of primary neuronal culture from embryonic day 17 mice (mouse) (UniProt Q924X6). Description: cell-based or functional assay.

Chain of ApoER2 of primary neuronal culture from embryonic day 17 mice (mouse) (Q924X6 29-996): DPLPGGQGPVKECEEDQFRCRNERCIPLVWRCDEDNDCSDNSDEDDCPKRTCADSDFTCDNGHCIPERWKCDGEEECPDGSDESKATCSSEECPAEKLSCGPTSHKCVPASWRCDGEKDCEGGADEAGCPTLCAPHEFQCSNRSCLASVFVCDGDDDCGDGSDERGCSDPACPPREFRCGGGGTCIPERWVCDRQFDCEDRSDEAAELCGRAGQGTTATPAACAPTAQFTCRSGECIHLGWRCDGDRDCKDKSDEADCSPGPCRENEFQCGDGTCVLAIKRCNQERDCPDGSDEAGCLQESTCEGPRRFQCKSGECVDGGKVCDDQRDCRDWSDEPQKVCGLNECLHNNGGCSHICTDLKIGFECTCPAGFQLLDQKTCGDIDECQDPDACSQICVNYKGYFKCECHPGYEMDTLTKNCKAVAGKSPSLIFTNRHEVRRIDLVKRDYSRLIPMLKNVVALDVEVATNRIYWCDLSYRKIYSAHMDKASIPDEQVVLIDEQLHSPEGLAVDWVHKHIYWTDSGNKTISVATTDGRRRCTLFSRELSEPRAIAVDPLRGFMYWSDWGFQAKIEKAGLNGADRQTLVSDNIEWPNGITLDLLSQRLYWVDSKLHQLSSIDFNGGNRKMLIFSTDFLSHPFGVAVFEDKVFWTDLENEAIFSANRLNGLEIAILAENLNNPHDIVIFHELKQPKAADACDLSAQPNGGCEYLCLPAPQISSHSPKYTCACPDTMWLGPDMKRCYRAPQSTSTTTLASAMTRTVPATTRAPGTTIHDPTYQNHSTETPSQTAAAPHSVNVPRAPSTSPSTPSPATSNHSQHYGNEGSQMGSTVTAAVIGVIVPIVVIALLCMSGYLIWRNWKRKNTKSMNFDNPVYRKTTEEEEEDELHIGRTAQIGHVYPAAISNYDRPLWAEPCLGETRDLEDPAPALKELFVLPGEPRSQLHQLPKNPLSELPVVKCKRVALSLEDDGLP

Consider “mouse Reelin repeats R3 through 6 (from UniProt Q60841 1222-2661) (ligand)”, for which the levels of phosphorylated ERK to total ERK, primary neurons, 60 minutes (ratio pERK/total ERK) was 1.15.
For the substance “Recombinant, human Reelin protein, R3 fragment conjugated to the R6 fragment (Reelin protein fragment R3+R6) (from UniProt P78509 1-2618) (ligand)”, the levels of phosphorylated ERK to total ERK, primary neurons, 60 minutes (ratio pERK/total ERK) came to 2.
For “full length Reelin consisting of the full length sequence and all of the naturally occurring fragments (ligand)”, the levels of phosphorylated ERK to total ERK, primary neurons, 60 minutes (ratio pERK/total ERK) is 2.5.
Consider “mouse Reelin N terminal through repeat R2 (from UniProt Q60841 27-1221) (ligand)”, for which the levels of phosphorylated ERK to total ERK, primary neurons, 60 minutes (ratio pERK/total ERK) is 0.53.
As to “Recombinant, human Reelin protein, R3 fragment conjugated to the R5 fragment (Reelin protein fragment R3+R5) (from UniProt P78509 1-2270) (ligand)”, the levels of phosphorylated ERK to total ERK, primary neurons, 60 minutes (ratio pERK/total ERK) turned out to be 2.22.
